B1: Intersectin-1, residues 1156 to 1213; numbered along this chain, Q15811 (parent)
chain: AVCQVIGMYDYTAQNDDELAFNKGQIINVLNKEDPDWWKGEVNGQVGLFPSNYVKLTT

Variants of: B1
Experiment: abundance fitness (aPCA) (normalised: wild type 0, dead -1); higher = more abundant; growth selection in yeast, the domain comes from the species named
Details: Homo sapiens

Abundance fitness: each site, then its substitutions
V29: I -0.617; Q -1.01; R -0.9; H -1.03; L -0.323; D -0.739; G -0.742; W -0.672; N -0.721; T -0.788; C -0.219; Y -0.504; E -0.925; K -0.699; S -0.827
N28: I -0.451; G -0.732; K -0.014; Q -0.399; R -0.065; E -0.156; P -0.942; Y -0.011; C -0.632; S 0.186; V -0.423; T 0.281; F -0.243; A -0.225; M -0.298; D -0.284
N31: A 0.037
K23: Y -0.673; N -0.494; S -0.214; V -0.21; E -0.011; D -0.859; W -0.852; H -0.298; P -0.921; A 0.215; C -0.275; G -0.701; T 0.065; I -0.849; R 0.137; M -0.487; L -0.77; F -0.613; Q -0.043
L30: R -0.712; G -0.933; D -0.917; T -0.476; S -0.758; Y -0.32; C -0.867; M -0.412; P -1.04; E -0.978; H -0.7; Q -0.257; I 0.043; A -0.911; K -0.825; V -0.081; N -0.505; F -0.123
I27: E -0.811; V -0.297; N -0.765; T -0.859; F -0.805; P -0.612; D -0.695; H -0.748; Q -1.05; S -0.915; R -0.85; K -0.81; G -0.746; A -0.789; Y -0.564; L -0.373; W -0.908; M -0.696
N22: I -0.286; K -0.027; D 0.164; S 0.009; A 0.157; E 0.174; G -0.006; V -0.06; Y -0.422; F -0.432; C 0.128; M 0.02; W -0.466; L -0.285; P -0.062
I26: K -0.084; L 0.18; T 0.163; S -0.554; F -0.523; P -0.561; V 0.297; D -0.807; A -0.237; G -0.857; R -0.131; C -0.149; E -0.278; M -0.462; Q -0.304; W -0.505; H -0.332
F21: Y -1.06; V 0.013; K -0.527; P -1.06; C -1.01; G -0.772; W -0.718; H -0.724; D -0.656; M -0.643; Q -1.13; L -0.687; A -0.913; E -0.745; R -0.686; I -0.266; T -0.985; S -0.927
G24: D -0.579; S -0.524; Q -0.44; F -0.739; I -0.682; N -0.348; V -0.895; K -0.571; M -0.693; A -0.854; P -0.825; T -0.599; W -0.528; E -0.895
A20: S -0.079; W -0.415; F -0.673; H -0.268; G 0.1; Q 0.092; M -0.545; K -0.236; R -0.292; I -0.793; T 0.127; Y -0.662; N -0.484; L -0.796; P -0.123; E -0.149

— the Human Domainome abundance scans (Beltran et al. 2025)
